The values that follow come from IntAct's records for PubMed 29039417.

The labels stand for the following.
B1: BBSome complex member BBS2 (Homo sapiens), Q9BXC9 (parent)
chain: MLLPVFTLKLRHKISPRMVAIGRYDGTHPCLAAATQTGKVFIHNPHTRNQHVSASRVFQSPLESDVSLLSINQAVSCLTAGVLNPELGYDALLVGTQTNLLAYDVYNNSDLFYREVADGANAIVLGTLGDISSPLAIIGGNCALQGFNHEGSDLFWTVTGDNVNSLALCDFDGDGKKELLVGSEDFDIRVFKEDEIVAEMTETEIVTSLCPMYGSRFGYALSNGTVGVYDKTSRYWRIKSKNHAMSIHAFDLNSDGVNELITGWSNGKVDARSDRTGEVIFKDNFSSAIAGVVEGDYRMDGHIQLICCSVDGEIRGYLPGTAEMRGNLMDTSAEQDLIRELSQKKQNLLLELRNYEENAKAELASPLNEADGHRGIIPANTRLHTTLSVSLGNETQTAHTELRISTSNDTIIRAVLIFAEGIFTGESHVVHPSIHNLSSSICIPIVPPKDVPVDLHLKAFVGYRSSTQFHVFESTRQLPRFSMYALTSLDPASEPISYVNFTIAERAQRVVVWLGQNFLLPEDTHIQNAPFQVCFTSLRNGGHLHIKIKLSGEITINTDDIDLAGDIIQSMASFFAIEDLQVEADFPVYFEELRKVLVKVDEYHSVHQKLSADMADHSNLIRSLLVGAEDARLMRDMKTMKSRYMELYDLNRDLLNGYKIRCNNHTELLGNLKAVNQAIQRAGRLRVGKPKNQVITACRDAIRSNNINTLFKIMRVGTASS
partner: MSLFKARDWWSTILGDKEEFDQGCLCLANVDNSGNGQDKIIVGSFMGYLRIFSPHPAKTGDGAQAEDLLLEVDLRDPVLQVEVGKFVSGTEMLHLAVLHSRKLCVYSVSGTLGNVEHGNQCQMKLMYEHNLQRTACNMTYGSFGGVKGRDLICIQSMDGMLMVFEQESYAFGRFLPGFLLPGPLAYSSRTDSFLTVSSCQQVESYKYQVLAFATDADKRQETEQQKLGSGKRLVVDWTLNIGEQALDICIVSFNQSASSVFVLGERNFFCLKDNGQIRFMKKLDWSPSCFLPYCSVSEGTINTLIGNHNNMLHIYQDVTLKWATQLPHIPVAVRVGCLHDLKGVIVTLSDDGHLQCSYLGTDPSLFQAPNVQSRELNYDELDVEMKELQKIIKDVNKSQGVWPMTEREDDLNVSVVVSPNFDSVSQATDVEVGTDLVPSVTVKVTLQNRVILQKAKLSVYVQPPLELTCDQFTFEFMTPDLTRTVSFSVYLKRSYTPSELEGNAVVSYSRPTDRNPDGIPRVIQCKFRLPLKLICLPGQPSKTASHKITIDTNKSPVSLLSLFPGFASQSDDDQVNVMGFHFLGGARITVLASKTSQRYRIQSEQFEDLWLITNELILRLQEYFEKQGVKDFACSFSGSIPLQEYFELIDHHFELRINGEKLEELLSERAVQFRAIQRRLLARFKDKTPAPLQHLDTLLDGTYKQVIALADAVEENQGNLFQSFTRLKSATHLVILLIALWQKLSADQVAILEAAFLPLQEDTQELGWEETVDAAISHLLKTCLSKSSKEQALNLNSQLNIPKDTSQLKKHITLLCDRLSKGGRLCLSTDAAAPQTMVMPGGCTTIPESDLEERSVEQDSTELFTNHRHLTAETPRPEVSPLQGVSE

The variants in the experiment derive from B1. The conditions noted are these: with pthb1_human BBS9, Q3SYG4.
L544K: the “effect of a mutation on the interaction” value is “with no effect”.

For L544E, the “effect of a mutation on the interaction” value is reported as “disrupting interaction strength”.

Turning to L544A, the “effect of a mutation on the interaction” value is recorded as “disrupting interaction strength”.

For L544S, the “effect of a mutation on the interaction” value is “disrupting interaction strength”.

In the case of I546E, the “effect of a mutation on the interaction” value is recorded as “disrupting interaction strength”.

For the variant I546A, the “effect of a mutation on the interaction” value is recorded as “with no effect”.

For I546K, the “effect of a mutation on the interaction” value is recorded as “with no effect”.

With I577E, the “effect of a mutation on the interaction” value is recorded as “with no effect”.

On to I577K, for which the “effect of a mutation on the interaction” value is given as “with no effect”.

With I577A, the “effect of a mutation on the interaction” value was “with no effect”.

Consider A584K, for which the “effect of a mutation on the interaction” value is given as “with no effect”.

Turning to A584E, the “effect of a mutation on the interaction” value is recorded as “with no effect”.

With G565E, the “effect of a mutation on the interaction” value is “with no effect”.

Regarding G565K, the “effect of a mutation on the interaction” value is reported as “with no effect”.

For G565A, the “effect of a mutation on the interaction” value is reported as “with no effect”.

For the variant L550K, the “effect of a mutation on the interaction” value is “with no effect”.

On to L550A, for which the “effect of a mutation on the interaction” value is “with no effect”.

For the variant L550E, the “effect of a mutation on the interaction” value is listed as “with no effect”.

Turning to D562A, the “effect of a mutation on the interaction” value is listed as “disrupting interaction strength”.

Turning to D562V, the “effect of a mutation on the interaction” value is recorded as “disrupting interaction strength”.

Regarding D562E, the “effect of a mutation on the interaction” value is “with no effect”.

On to D562K, for which the “effect of a mutation on the interaction” value is “with no effect”.

As for S570K, the “effect of a mutation on the interaction” value is “with no effect”.

Turning to S570E, the “effect of a mutation on the interaction” value is recorded as “with no effect”.

With S570L, the “effect of a mutation on the interaction” value is on record as “disrupting interaction strength”.

With S570A, the “effect of a mutation on the interaction” value is “with no effect”.

As for F586K, the “effect of a mutation on the interaction” value was “with no effect”.

F586E: the “effect of a mutation on the interaction” value is “with no effect”.

Take F586A: the “effect of a mutation on the interaction” value is on record as “with no effect”.

Take R539K: the “effect of a mutation on the interaction” value is listed as “with no effect”.

Regarding R539A, the “effect of a mutation on the interaction” value is reported as “with no effect”.

For R539E, the “effect of a mutation on the interaction” value is recorded as “with no effect”.

In the case of D579A, the “effect of a mutation on the interaction” value was “with no effect”.

For the variant D579E, the “effect of a mutation on the interaction” value is reported as “with no effect”.

In the case of D579K, the “effect of a mutation on the interaction” value was “with no effect”.

In the case of V582A, the “effect of a mutation on the interaction” value was “with no effect”.

Consider V582E, for which the “effect of a mutation on the interaction” value is recorded as “with no effect”.

As to V582K, the “effect of a mutation on the interaction” value was “with no effect”.

On to Q569E, for which the “effect of a mutation on the interaction” value is given as “with no effect”.

Regarding Q569K, the “effect of a mutation on the interaction” value was “with no effect”.

For the variant Q569A, the “effect of a mutation on the interaction” value is “with no effect”.

As for A564K, the “effect of a mutation on the interaction” value is recorded as “with no effect”.

A564E: the “effect of a mutation on the interaction” value is recorded as “with no effect”.

For the variant D566A, the “effect of a mutation on the interaction” value is listed as “with no effect”.

D566K: the “effect of a mutation on the interaction” value is given as “with no effect”.

In the case of D566E, the “effect of a mutation on the interaction” value was “with no effect”.

Consider G541K, for which the “effect of a mutation on the interaction” value was “with no effect”.

Take G541E: the “effect of a mutation on the interaction” value is “with no effect”.

As to G541A, the “effect of a mutation on the interaction” value is listed as “with no effect”.

Regarding G552K, the “effect of a mutation on the interaction” value was “with no effect”.

Turning to G552E, the “effect of a mutation on the interaction” value is “disrupting interaction strength”.

G552A: the “effect of a mutation on the interaction” value is reported as “with no effect”.

Consider D585K, for which the “effect of a mutation on the interaction” value is on record as “with no effect”.

For the variant D585E, the “effect of a mutation on the interaction” value is recorded as “with no effect”.

For D585A, the “effect of a mutation on the interaction” value is “with no effect”.

For the variant K549E, the “effect of a mutation on the interaction” value is “with no effect”.

Take K549A: the “effect of a mutation on the interaction” value is listed as “with no effect”.

As for I556A, the “effect of a mutation on the interaction” value is recorded as “with no effect”.

On to I556E, for which the “effect of a mutation on the interaction” value is listed as “with no effect”.

Turning to I556K, the “effect of a mutation on the interaction” value is on record as “with no effect”.

In the case of I567E, the “effect of a mutation on the interaction” value was “with no effect”.

Take I567A: the “effect of a mutation on the interaction” value is “with no effect”.

As to I567K, the “effect of a mutation on the interaction” value is recorded as “with no effect”.

Turning to F535E, the “effect of a mutation on the interaction” value is reported as “disrupting interaction strength”.

For the variant F535A, the “effect of a mutation on the interaction” value was “with no effect”.

With F535K, the “effect of a mutation on the interaction” value is reported as “disrupting interaction strength”.

With E578K, the “effect of a mutation on the interaction” value was “with no effect”.

E578A: the “effect of a mutation on the interaction” value was “with no effect”.

Turning to L580A, the “effect of a mutation on the interaction” value is “with no effect”.

Turning to L580E, the “effect of a mutation on the interaction” value is reported as “with no effect”.

On to L580K, for which the “effect of a mutation on the interaction” value is “with no effect”.

N540K: the “effect of a mutation on the interaction” value was “with no effect”.

As to N540E, the “effect of a mutation on the interaction” value is listed as “with no effect”.

With N540A, the “effect of a mutation on the interaction” value is listed as “disrupting interaction strength”.

Take V533K: the “effect of a mutation on the interaction” value is reported as “with no effect”.

As to V533E, the “effect of a mutation on the interaction” value is “disrupting interaction strength”.

For the variant V533A, the “effect of a mutation on the interaction” value is given as “with no effect”.

Turning to K547E, the “effect of a mutation on the interaction” value is listed as “with no effect”.

Take K547A: the “effect of a mutation on the interaction” value is on record as “with no effect”.

With L563E, the “effect of a mutation on the interaction” value is listed as “with no effect”.

Take L563K: the “effect of a mutation on the interaction” value is reported as “with no effect”.

Regarding L563A, the “effect of a mutation on the interaction” value is on record as “with no effect”.

Consider E583A, for which the “effect of a mutation on the interaction” value was “with no effect”.

With E583K, the “effect of a mutation on the interaction” value is recorded as “with no effect”.

In the case of I548K, the “effect of a mutation on the interaction” value is reported as “with no effect”.

In the case of I548A, the “effect of a mutation on the interaction” value is on record as “with no effect”.

For the variant I548E, the “effect of a mutation on the interaction” value is listed as “with no effect”.

As to N557E, the “effect of a mutation on the interaction” value was “with no effect”.

Take N557K: the “effect of a mutation on the interaction” value is “with no effect”.
